The text below walks through data of patent US20200179497A1.

Like-named read-outs stand apart in the source and are kept apart here.

Holding throughout (test): cell-based or functional assay
Assay [1] has as its target adalimumab (Humira).
For assay [2], the target named is denosumab (XGEVA).
For assay [3], the target named is IVIg (Octagam).
The target of assay [4] is IVIg (Octagam). This is another data set of the same source.

On to “pCART144 (IdeZ with additional N terminal methionine and histidine tag) (enzyme)”, for which the enzyme concentration giving equal cleavage on SDS-PAGE in assay [1] was 4.6 ng/mL. This substance also registered an enzyme concentration giving a dominating F(ab')2 band on SDS-PAGE in assay [2] of 3.3 µg/mL. The enzyme concentration giving a single intense scIgG band on SDS-PAGE in assay [2] (scale: pig/ml) worked out at 0.12.

Take “BX1001865 (IdeS lacking tag, produced to GMP standard) (enzyme)”: in assay [3], the Conc. of enzyme, 1st IgG heavy chain, IgG to scIgG (gel) came to 1900 ng/mL and the Conc. of enzyme, 2nd IgG heavy chain, scIgG to F(ab')2 (gel) amounted to 7500 ng/mL. In assay [4], this substance had a Conc. of enzyme, 2nd IgG heavy chain, scIgG to F(ab')2 (gel) of 6000 ng/mL; an enzyme concentration giving a dominating scIgG band on SDS-PAGE of 1.9 ng/mL; an enzyme concentration giving mainly scIgG on SDS-PAGE of 1.9 ng/mL.

In the case of “pCART124 (IdeS with additional N terminal methionine and histidine tag) (enzyme)”, in assay [3], the Conc. of enzyme, 1st IgG heavy chain, IgG to scIgG (gel) worked out at 1900 ng/mL and the Conc. of enzyme, 2nd IgG heavy chain, scIgG to F(ab')2 (gel) was found to be 7500 ng/mL. For the same substance, in assay [4], the Conc. of enzyme, 2nd IgG heavy chain, scIgG to F(ab')2 (gel) was determined as 6000 ng/mL and the enzyme concentration giving a dominating scIgG band on SDS-PAGE was found to be 1.9 ng/mL.
